From patent publication US20240101645A1 (HENRY M JACKSON FOUNDATION FOR THE ADVANCEMENT OF MILITARY …, published 2024)

B1: COV_2077 (antibody, V domains shown)
VH: QVQLQESGPGLVKPSETLSLTCTVSGGSISSYSWSWIRQPPGKGLEWIGYIYYSGSTNYNPSLKSRVTISVDTSKNQFSLKLSSVTAADTAVYYCARESMGRYSLELRQPESAFDYWGRGTLVTVSS
VL: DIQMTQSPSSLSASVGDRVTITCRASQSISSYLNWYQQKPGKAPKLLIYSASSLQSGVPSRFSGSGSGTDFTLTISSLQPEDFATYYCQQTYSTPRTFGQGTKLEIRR
notes: human IgG1
B2: COV_1172 (antibody, V domains shown)
VH: QVQLQESGPGLVKPSETLSLTCTVSGGSIRSYYWSWIRQPPGKGLEWIGYIYYSGSTNYSPSLKSRVTISVDTSKNQFSLKLNSVTAADTAVYYCARRGLGYCSGDSCSNAFDIWGQGTMVTVSS
VL: DIQMTQSPSSLSASVGDRVTITCRASQSISSYLNWYQQKPGRAPELLIYDASSLQSGVPSGFSGSGSGTDFTLTISSLQPEDFATYYCQQSYSTPFTFGPGTKVDIKR
notes: human IgG1
B3: COV_1144 (antibody, V domains shown)
VH: EVQLVESGGGLVQPGGSLRLSCAASGFTFRSFWMSWVRQAPGKGLEWVANIKEDASEKHYVDPVKGRFTISRDNAKNSLYLQLNSLRAEDMAVYYCARVGRGYCTNGLCYTAFEYWGQGTLVTVSS
VL: DIQMTQSPSSLSASVGDRVTITCRTSQSISNYLNWYQQKPGKAPKLLIYAASSLQSGVPSRFSGSGSGTDFTLTISSLQPEDFATYYCQQSYSTAWTFGQGTKVEIRR
notes: human IgG1
B4: COV_2004 (antibody, V domains shown)
VH: QVQLVQSGAEVKKPGASVKVSCKASGYTFTGYYMHWVRQAPGQGLEWMGRINPSSGGTNYAQKFQGRVTMTRDTSISTAYMELSSLRSDDTAVYYCATDGDDGENWFDPWGQGTLVIVSS
VL: DIQMTQSPSSLSASVGDRVTITCRASQGISSWLAWYQQKPEKAPKSLIYAASSLQSGVPSRFSGSGSGTDFTLTISSLQPEDFATYYCQQYNSYPYTFGQGTKLEIK
notes: human IgG1
B5: COV_1151 (antibody, V domains shown)
VH: QVQVQQWGAGLLKPSETLSLTCAVYGGSFNNYYWSWIRQPPGKGLEWIGEINHSGSTNYNPSLMSRVTISVDTSKNQFSLKLTSVTAADTAVYFCARGLPVTTFFSSYYGMDVWGQGTTVTVSS
VL: EIVLTQSPGTLSLSPGERATLSCRASQSVSRTYLAWYQQKPGQAPRLLIYGASSRATGIPDRFSGSGSGTDFTLTISRLEPEDFAVYYCQHYGSSPWTFGQGTKVEIRR
notes: human IgG1
B6: COV_1149 (antibody, V domains shown)
VH: QVQLVESGGGVVQPGRSLRLSCAASGFTFSSYGMHWVRQAPGKGLEWVAVISYDGSNKYYADSVKGRFTISRDNSKNTLYLQMNSLRAEDTAVYYCAKTGGGYSYGLGNVWGQGTLVTVSS
VL: QSALTQPASVSGSPGQSITISCTGTSSDVGGYNYVSWYQQHPGKAPKLMIYDVSNRPSGVSNRFSGSKSGNTASLTISGLQAEDEADYYCSSYTSSSTLVVFGGGTKLTVLG
notes: human IgG1
B7: COV_2056 (SEQ ID NO:792/797) (antibody, V domains shown)
VH: EVQLVESGGGVVQPGRSLRLSCAASGFTFSIYGMHWVRQAPGKGLEWVALISYDGTNKYYADSVKGRFSISRDDSKNTLYLQMNSLRPEDTAVYYCAKVLMMGDSSGFSLGDAFDIWGQGTMVTVSS
VL: DIQMTQSPSSVSASVGDRVTITCRASQGISNWLAWYQQKPGKAPKLLIYAASSLQSGVPSRFSGSVSGTDFTLTISSLQPEDFATYYCQQANSFPLTFGGGTKVDIKR
B8: COV_2008 (antibody, V domains shown)
VH: QVRVVQSGAEVKNPGASVKVSCKVSGYTLTELSIHWVRQAPGNGLEWMGGFDPEDGETIYAQKFQGRVTMTEDTSTDTAYMELSSLRSDDTAVYYCATAGAITGTPRNFYYYYGMDVWGQGTTVTVSS
VL: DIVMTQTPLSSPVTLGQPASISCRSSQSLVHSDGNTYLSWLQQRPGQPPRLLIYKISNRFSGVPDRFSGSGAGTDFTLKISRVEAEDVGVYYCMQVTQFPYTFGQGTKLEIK
notes: human IgG1
B9: COV_1166 (antibody, V domains shown)
VH: EVQLVESGGGLVQPGGSLRLSCAVSGFTFRSFWMSWVRQTPGKGLEWVANIKEDGSEKYYVDSVKGRFTISRDNAKNSLYLQMNSLRAEDTAVYYCAREGRWELLGFAFDIWGQGTMVTVSS
VL: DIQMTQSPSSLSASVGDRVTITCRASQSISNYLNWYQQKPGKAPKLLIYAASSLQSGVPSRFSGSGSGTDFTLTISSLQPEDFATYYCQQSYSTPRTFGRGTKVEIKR
notes: human IgG1
B10: COV_1201 (antibody, V domains shown)
VH: QVQLVQSGAEVKKPGASMKVSCKASGYTFTGYYIHWVRQAPGQGLEWMGRINPNSGGTNYAQKFQGRVTMTRDTSISTAYMELSRLRSDDTAVYYCAREYYYVPYGMDVWGQGTTVTVSS
VL: QSALTQPASVSGSPGQSITISCTGTSSDVGGYNFVSWYQHHPGKAPKLMIYEVSNRPSGVSNRFSGSKSGNTASLTISGLQAEDEADYYCSSYTSSSTYVFGTGTKVTVL
notes: human IgG1
B11: COV_2048 (antibody, V domains shown)
VH: QVQLQESGPGLVKPSETLSLTCTVSGGSISNTSYYWGWIRQPPGKGLEWIGSIYRSGSTYYNPSLKSRVTISIDTSKNQFTLKLSSVTAADTAVYYCARDYYGDYSAKPMEYWGQGTLVTVSS
VL: QSALTQPRSVSGSPGQSVTISCTGTSSDVGGYNYVSWYQQHPGKAPKLLIYDVSKRPSGVPDRFSGSKSGNTASLTISGLQAEDEADYYCCSYAGSYVVFGGGAKLTVLG
notes: human IgG1
B12: COV_2035 (antibody, V domains shown)
VH: QVQLVQSGAEVKKPGASVKVSCKVSGYTLPELSIHWVRQAPGKGLEWLGGFDPEDGKIIYAQKFQGRVTMTEDTSTDTAYMELSSLRSEDTAVYYCATSPAVVERGWFDPWGQGTLVTVSS
VL: QSALTQPPSASGSPGQSVTISCTGTSSDVGGYNYVSWYQQHPGKAPKLMIYEVSKRPSGVPDRFSGSKSGNMASLTVSGLQAEDEANYYCSSYAGSKRVFGGGTKLTVL
notes: human IgG1
B13: COV_1170 (antibody, V domains shown)
VH: QVQLVESGGGVVQPGRSLRLSCAASGFTFSTYAMHWVRQAPGKGLEWVALISYDGSNKYYADSVKGRFTISRDNSKNTLDLQMNSLRAEDTAVYYCARSLGGYRTGFDYWGQGTLVTVSS
VL: DIQLTQSPSFLSASVGDRVTITCRASQGISSYLAWYQQKPGKAPKLLIYAASTLQSGVPSRFSGSGSGTEFTLTISSLQPEDFATYYCQQLNSYPPFTFGPGTKVDIKR
notes: human IgG1

Each binder was assayed against T1, HCoV-NL63 spike antigens (bead panel) (HCoV-NL63, UniProt Q6Q1S2 19-1296) (assay: multiplex bead assay).
T1 sequence: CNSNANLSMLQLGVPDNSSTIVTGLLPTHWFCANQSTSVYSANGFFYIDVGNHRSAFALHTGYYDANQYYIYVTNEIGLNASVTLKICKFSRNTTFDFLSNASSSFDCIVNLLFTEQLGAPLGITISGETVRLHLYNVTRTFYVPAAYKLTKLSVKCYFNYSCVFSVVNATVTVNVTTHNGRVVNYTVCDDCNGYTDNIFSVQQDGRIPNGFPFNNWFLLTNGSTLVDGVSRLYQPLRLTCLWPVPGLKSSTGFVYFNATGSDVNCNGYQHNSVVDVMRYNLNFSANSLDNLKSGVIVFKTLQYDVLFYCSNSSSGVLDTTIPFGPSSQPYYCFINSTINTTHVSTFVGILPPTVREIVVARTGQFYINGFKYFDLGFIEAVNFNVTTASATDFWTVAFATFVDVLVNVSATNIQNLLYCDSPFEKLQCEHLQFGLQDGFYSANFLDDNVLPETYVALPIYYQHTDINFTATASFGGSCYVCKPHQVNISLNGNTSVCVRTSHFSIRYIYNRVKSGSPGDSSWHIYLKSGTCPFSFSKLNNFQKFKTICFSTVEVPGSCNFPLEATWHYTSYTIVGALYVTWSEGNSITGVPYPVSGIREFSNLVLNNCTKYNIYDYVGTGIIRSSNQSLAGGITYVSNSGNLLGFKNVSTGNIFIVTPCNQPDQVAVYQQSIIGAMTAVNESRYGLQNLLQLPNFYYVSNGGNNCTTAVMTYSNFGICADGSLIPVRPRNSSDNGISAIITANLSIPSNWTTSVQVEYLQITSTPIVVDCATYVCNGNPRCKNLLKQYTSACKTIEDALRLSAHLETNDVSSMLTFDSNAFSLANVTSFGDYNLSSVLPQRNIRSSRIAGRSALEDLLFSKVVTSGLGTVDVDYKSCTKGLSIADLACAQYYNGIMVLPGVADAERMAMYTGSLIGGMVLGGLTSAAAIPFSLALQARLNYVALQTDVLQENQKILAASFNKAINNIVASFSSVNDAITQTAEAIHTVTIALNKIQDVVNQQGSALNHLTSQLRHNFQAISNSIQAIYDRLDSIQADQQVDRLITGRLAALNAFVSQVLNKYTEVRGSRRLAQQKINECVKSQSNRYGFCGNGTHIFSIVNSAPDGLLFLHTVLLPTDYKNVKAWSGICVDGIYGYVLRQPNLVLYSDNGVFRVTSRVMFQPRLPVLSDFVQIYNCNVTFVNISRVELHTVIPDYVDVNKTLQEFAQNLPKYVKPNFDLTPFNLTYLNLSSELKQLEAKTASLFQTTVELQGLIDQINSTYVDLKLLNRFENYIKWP

Binder	binding result
B1	no binding
B2	no binding
B3	no binding
B4	no binding
B5	no binding
B6	no binding
B7	no binding
B8	no binding
B9	no binding
B10	no binding
B11	no binding
B12	no binding
B13	no binding

What follows are binders tested against T2, HCoV-HKU1 spike antigens (bead panel) (HCoV-HKU1, UniProt Q5MQD0 13-1300) (assay: multiplex bead assay).
T2 sequence: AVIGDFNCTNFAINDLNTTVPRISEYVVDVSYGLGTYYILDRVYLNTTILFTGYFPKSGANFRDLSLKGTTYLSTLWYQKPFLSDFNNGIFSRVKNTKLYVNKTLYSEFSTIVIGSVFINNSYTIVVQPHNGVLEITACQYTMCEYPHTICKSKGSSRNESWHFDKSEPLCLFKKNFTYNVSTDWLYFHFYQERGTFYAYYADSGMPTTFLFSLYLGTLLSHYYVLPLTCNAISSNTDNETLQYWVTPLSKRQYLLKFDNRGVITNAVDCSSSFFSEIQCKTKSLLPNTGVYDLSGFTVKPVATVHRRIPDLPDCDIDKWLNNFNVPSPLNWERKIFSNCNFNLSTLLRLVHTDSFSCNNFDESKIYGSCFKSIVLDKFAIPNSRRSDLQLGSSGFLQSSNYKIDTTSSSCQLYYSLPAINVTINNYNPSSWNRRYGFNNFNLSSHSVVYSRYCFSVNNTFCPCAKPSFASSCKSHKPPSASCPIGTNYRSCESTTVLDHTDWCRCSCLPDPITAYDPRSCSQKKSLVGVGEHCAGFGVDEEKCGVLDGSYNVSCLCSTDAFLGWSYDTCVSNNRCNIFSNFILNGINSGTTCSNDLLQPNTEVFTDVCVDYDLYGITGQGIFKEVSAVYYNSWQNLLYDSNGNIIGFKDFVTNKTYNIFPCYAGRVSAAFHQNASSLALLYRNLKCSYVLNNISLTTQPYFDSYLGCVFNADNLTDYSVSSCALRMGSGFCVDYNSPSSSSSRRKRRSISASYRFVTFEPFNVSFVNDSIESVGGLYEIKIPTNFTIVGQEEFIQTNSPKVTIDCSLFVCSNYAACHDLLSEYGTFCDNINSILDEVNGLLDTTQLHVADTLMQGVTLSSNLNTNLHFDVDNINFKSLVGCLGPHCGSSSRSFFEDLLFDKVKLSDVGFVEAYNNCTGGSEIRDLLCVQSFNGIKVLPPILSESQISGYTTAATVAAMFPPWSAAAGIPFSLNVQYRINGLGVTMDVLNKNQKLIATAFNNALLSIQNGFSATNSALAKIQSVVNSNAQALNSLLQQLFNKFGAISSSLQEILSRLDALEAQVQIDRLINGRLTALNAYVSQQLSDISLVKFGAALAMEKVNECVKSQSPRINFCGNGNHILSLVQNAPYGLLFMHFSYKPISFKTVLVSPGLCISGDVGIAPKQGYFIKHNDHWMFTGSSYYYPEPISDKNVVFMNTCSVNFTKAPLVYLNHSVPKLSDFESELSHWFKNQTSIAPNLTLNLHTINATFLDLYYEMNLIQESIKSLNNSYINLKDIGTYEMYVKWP

Binder	binding result
B1	no binding
B2	no binding
B3	no binding
B4	no binding
B5	no binding
B6	no binding
B7	no binding
B8	no binding
B9	no binding
B10	no binding
B11	no binding
B13	no binding
